From the supplement of paper PMC10126150
± gives the standard deviation of the averaged measurements.

tested on: ATP; experiment: switch fluorescence ratio, 500 uM ATP over buffer (Cy3 cluster intensity, sum of 5 cycles each) (fold (ratio)); higher = stronger signal-on switching upon ATP binding; sequences stand for … in TCGTCGGCAGCGTCAGATGTGTATAAGAGACAGTTTTTTTTTTTTTTTTTTTTTTTTT…TC; conditions: aptamer strand: ATP DNA aptamer (quencher-CACCTGGGGGAGTATTGCGGAGGAAGG + anchor), 100 nM annealed; ATP concentration: 500 uM
Method in brief: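 Switching-strand clusters labelled with Cy3 on a modified Illumina MiSeq flow-cell were annealed to 100 nM quencher-labelled ATP aptamer, imaged in selection buffer, and re-imaged after 15 min with 500 uM ATP at 22 °C. This was done over five cycles with NaOH stripping and re-annealing in between. The fluorescence ratio is summed target-cycle over summed buffer-cycle Cy3 intensity per cluster, averaged per switch-domain sequence, excluding clusters outside 100-1000 RFU.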
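Also: ATP exposure 15 min at 22 °C before imaging.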

| Sequence | switch fluorescence ratio |
| --- | --- |
| GACCTATTTT | 1.023 ± 0.0039 |
| GACCTCAGAC | 1.09 ± 0.024 |
| GACCTCAGGT | 1.08 ± 0.11 |
| GACCTTTGTT | 1.01 ± 0.022 |
| GACGACAGTC | 1.029 ± 0.0052 |
| GACGACGACA | 2.5 ± 0.092 |
| GACGACTATT | 1.13 ± 0.016 |
| GACGACTGAG | 0.999 ± 0.087 |
| GACGAGCGGT | 1.3 ± 0.22 |
| GACGAGGCAG | 2.27 ± 0.21 |
| GACGATTGCG | 1.01 ± 0.032 |
| GACGATTGTG | 0.991 ± 0.07 |
| GACGGAAGAA | 1.74 ± 0.072 |
| GACGGAAGTT | 1.004 ± 0.0017 |
| GACGGAGTCG | 0.997 ± 0.03 |
| GACGGCAGTG | 1 ± 0.02 |
| GACGGGATAG | 1.245 ± 0.0072 |
| GACGGGATCA | 1.02 ± 0.033 |
| GACGGGCCGG | 1.01 ± 0.03 |
| GACGGGGACT | 1.1 ± 0.025 |
| GACGGGGCCC | 1 ± 0.013 |
| GACGGGGGAA | 1.82 ± 1.3 |
| GACGGGGGGC | 1.02 ± 0.018 |
| GACGGGGGTA | 1.04 ± 0.043 |
| GACGGGGTTA | 1.02 ± 0.018 |

| Sequence | switch fluorescence ratio |
| --- | --- |
| GACGGGTTAG | 1.02 ± 0.017 |
| GACGGTAAAG | 0.996 ± 0.037 |
| GACGGTAGTT | 1.01 ± 0.047 |
| GACGGTCACT | 1.21 ± 0.013 |
| GACGGTTGCG | 0.977 ± 0.054 |
| GACGTCGGGA | 1.012 ± 0.0021 |
| GACGTTGGGG | 0.977 ± 0.01 |
| GACGTTTAAT | 1.021 ± 0.0057 |
| GACGTTTTGG | 0.997 ± 0.025 |
| GACTAAAATG | 1.02 ± 0.019 |
| GACTAAATGC | 1.8 ± 0.3 |
| GACTAATACG | 1.04 ± 0.024 |
| GACTACAGTG | 1.1 ± 0.019 |
| GACTAGGAAG | 0.994 ± 0.022 |
| GACTATTAGG | 0.989 ± 0.029 |
| GACTATTGGG | 1 ± 0.044 |
| GACTATTTGG | 1.02 ± 0.044 |
| GACTCAGACA | 1.03 ± 0.047 |
| GACTCGAAAA | 1.17 ± 0.16 |
| GACTCTAGGA | 1.064 ± 0.0025 |
| GACTCTATGG | 0.943 ± 0.11 |
| GACTGAATAC | 3.91 ± 1.9 |
| GACTGAGGGG | 1.02 ± 0.05 |
| GACTGAGTTG | 0.998 ± 0.036 |
| GACTGGCATA | 1.097 ± 0.0039 |

| Sequence | switch fluorescence ratio |
| --- | --- |
| GACTGGCTT | 0.9868 ± 0.0073 |
| GACTGGGGAG | 0.991 ± 0.056 |
| GACTGGGGGG | 0.997 ± 0.041 |
| GACTGTAAGC | 1.057 ± 0.0074 |
| GACTGTACTA | 1.48 ± 0.075 |
| GACTTACGTT | 1.22 ± 0.17 |
| GACTTCGAAA | 1.63 ± 0.028 |
| GACTTCGAGC | 1.02 ± 0.024 |
| GACTTGAGGT | 1.03 ± 0.025 |
| GACTTGCTGG | 0.9876 ± 0.0044 |
| GACTTGGAAT | 1 ± 0.041 |
| GACTTTGGCA | 0.983 ± 0.034 |
| GACTTTGTCA | 1.04 ± 0.025 |
| GACTTTTACC | 1.07 ± 0.027 |
| GACTTTTTAG | 0.9801 ± 0.0065 |
| GAGAAAGCCC | 1 ± 0.015 |
| GAGAAGAGGA | 0.9918 ± 0.0021 |
| GAGAAGATTT | 1.036 ± 0.0016 |
| GAGAATCCGG | 1 ± 0.087 |
| GAGAATGGGT | 0.981 ± 0.022 |
| GAGAATGTGT | 0.994 ± 0.012 |
| GAGACACATA | 1.09 ± 0.013 |
| GAGACCGTGT | 1.01 ± 0.052 |
| GAGACGGGGA | 0.982 ± 0.021 |
| GAGACGGGTG | 1.01 ± 0.031 |

| Sequence | switch fluorescence ratio |
| --- | --- |
| GAGACGGTCT | 1.05 ± 0.025 |
| GAGAGAAGTG | 0.945 ± 0.022 |
| GAGAGAATGG | 0.994 ± 0.0043 |
| GAGAGACAGG | 1.014 ± 0.0095 |
| GAGAGGAGGG | 0.944 ± 0.049 |
| GAGAGGAGTA | 0.967 ± 0.037 |
| GAGAGGCTGC | 0.975 ± 0.02 |
| GAGAGGCTGT | 0.9538 ± 0.0062 |
| GAGAGGGAGC | 0.91 ± 0.076 |
| GAGAGGGGCT | 1.01 ± 0.02 |
| GAGAGGGGTC | 1.01 ± 0.045 |
| GAGAGGTG | 1.08 ± 0.021 |
| GAGAGTACGT | 0.964 ± 0.013 |
| GAGAGTTATT | 0.988 ± 0.04 |
| GAGATATACT | 1.06 ± 0.017 |
| GAGATCAGTT | 0.9808 ± 0.0058 |
| GAGATGATTT | 1.02 ± 0.063 |
| GAGATGGGGC | 1.09 ± 0.1 |
| GAGATGTTT | 0.969 ± 0.04 |
| GAGATTCTTG | 1 ± 0.02 |
| GAGATTGGTG | 1 ± 0.031 |
| GAGATTGTGG | 0.9652 ± 0.0048 |
| GAGCAAGAGT | 1.8 ± 0.046 |
| GAGCAGGGCC | 0.982 ± 0.046 |
| GAGCATATCA | 1.006 ± 0.0028 |
